Results as given in paper PMC6175992, “Telomeric Repeat-Binding Factor Homologs in Entamoeba histolytica: New Clues for Telomeric Research”.

T1: rEhTRF-like I (Entamoeba histolytica, UniProt C4M1I9 1-404)
T1 sequence: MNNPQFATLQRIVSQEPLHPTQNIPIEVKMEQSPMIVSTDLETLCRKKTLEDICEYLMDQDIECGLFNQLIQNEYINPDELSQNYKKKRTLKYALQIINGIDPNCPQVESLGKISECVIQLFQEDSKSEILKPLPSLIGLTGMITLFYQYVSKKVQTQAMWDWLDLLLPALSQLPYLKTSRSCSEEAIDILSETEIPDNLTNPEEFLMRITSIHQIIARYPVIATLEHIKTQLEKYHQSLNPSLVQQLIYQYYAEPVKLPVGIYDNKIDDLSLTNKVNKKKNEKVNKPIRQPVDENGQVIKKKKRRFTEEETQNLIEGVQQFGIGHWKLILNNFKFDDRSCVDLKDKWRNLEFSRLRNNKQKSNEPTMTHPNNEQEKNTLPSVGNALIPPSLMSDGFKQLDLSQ

B1: HsTEL (dsDNA)
DNA 1: GCTCTAGGGTTAGGGTTAGGGTTAGGGTTA
DNA 2: CATCTACCCTAACCCTAACCCTAACCCTAA
B2: EhTEL (dsDNA)
DNA 1: GCTCTATTAGTATTTTAGTATTTTAGTATTTTAGTATT
DNA 2: CATCTAGAGCAATACTAAAATACTAAAATACTAAAATACTAA

Biological target: T1, rEhTRF-like I
Test: EMSA; competed by unlabeled HsTEL and EhTEL; 12 mM HEPES pH 7.9, 60 mM KCl, 5 mM MgCl2, 1 mM EDTA, 4 mM Tris-HCl, 5 mM DTT, 10% glycerol, 4 mM spermidine, 4 mM MgCl (so in the source), 50 ng poly dI-dC, protease inhibitors; 20 min at 4 C; 106.86 uM rEhTRF-like I or 10 ug nuclear extract, 1 ng probe
Conditions: protein: recombinant; tags: His tag (pCold I); label: 32P; 5' overhangs on both strands

Binder	binding result
B1	binds
B2	binds
